# Test results taken from publication PMC5789003, “Structural and functional characterization of shaft, anchor, and tip proteins of the Mfa1 fimbria from the periodontal pathogen Porphyromonas gingivalis” (Scientific Reports, 2018).
# Values joined by “and” are separate entries in the source; they are usually repeats but may differ in a detail not shown here. Equal values may be shown once.
# Molecular target: the molecule itself
# Assay: SDS-PAGE and immunoblot of partially heat-denatured fimbriae (ladder-like pattern)
row,Protein,stoichiometry N
1,"Mfa2 (anchor protein of the Mfa1 fimbria), wild type, in P. gingivalis (natural protein, lipidated cysteine (Cys29); disulphide bonds Cys54-Cys285 and Cys298-Cys300) CDKMIYDNYDDCPRGVYVNFYSQTECAENPSYPAEVARLNVYAFDKDGILRSANVFEDVQLSAAKEWLIPLEKDGLYTIFAWGNIDDHYNIGEIKIGETTKQQVLMRLKQDGKWATNIDGTTLWYATSPVVELKNMEDGADQYIHTRANLREYTNRVTVSVDSLPHPENYEIKLASSNGSYRFDGTVAKADSTYYPGETKVVGDSTCRAFFTTLKLESGHENTLSVTHKPTGREIFRTDLVGAILSSQYAQNINLRCINDFDIRLVAHHCNCPDDTYVVVQIWINGWLIHSYEIEL",2 and 3
2,"Mfa2 C285A (natural protein, source: P. gingivalis Δmfa2Δfim complemented with mfa2C285A, whole cell lysate) CDKMIYDNYDDCPRGVYVNFYSQTECAENPSYPAEVARLNVYAFDKDGILRSANVFEDVQLSAAKEWLIPLEKDGLYTIFAWGNIDDHYNIGEIKIGETTKQQVLMRLKQDGKWATNIDGTTLWYATSPVVELKNMEDGADQYIHTRANLREYTNRVTVSVDSLPHPENYEIKLASSNGSYRFDGTVAKADSTYYPGETKVVGDSTCRAFFTTLKLESGHENTLSVTHKPTGREIFRTDLVGAILSSQYAQNINLRAINDFDIRLVAHHCNCPDDTYVVVQIWINGWLIHSYEIEL",3 and 2
3,"Mfa2 C54A (natural protein, source: P. gingivalis Δmfa2Δfim complemented with mfa2C54A, whole cell lysate) CDKMIYDNYDDCPRGVYVNFYSQTEAAENPSYPAEVARLNVYAFDKDGILRSANVFEDVQLSAAKEWLIPLEKDGLYTIFAWGNIDDHYNIGEIKIGETTKQQVLMRLKQDGKWATNIDGTTLWYATSPVVELKNMEDGADQYIHTRANLREYTNRVTVSVDSLPHPENYEIKLASSNGSYRFDGTVAKADSTYYPGETKVVGDSTCRAFFTTLKLESGHENTLSVTHKPTGREIFRTDLVGAILSSQYAQNINLRCINDFDIRLVAHHCNCPDDTYVVVQIWINGWLIHSYEIEL",2 and 3
